Data published in publication PMC10557571 (bioRxiv, 2023).

B1: Unprocessed Activin E precursor from Construct I (natural protein, human, UniProt P58166 20-350, looked up)
chain: QGTGSVCPSCGGSKLAPQAERALVLELAKQQILDGLHLTSRPRITHPPPQAALTRALRRLQPGSVAPGNGEEVISFATVTDSTSAYSSLLTFHLSTPRSHHLYHARLWLHVLPTLPGTLCLRIFRWGPRRRRQGSRTLLAEHHITNLGWHTLTLPSSGLRGEKSGVLKLQLDCRPLEGNSTVTGQPRRLLDTAGHQQPFLELKIRANEPGAGRRRRRTPTCEPATPLCCRRDHYVDFQELGWRDWILQPEGYQLNYCSGQCPPHLAGSPGIAASFHSAVFSLLKANNPWPASTSCCVPTARRPLSLLYLDHNGNVVKTDVPDMVVEACGCS
B2: Flag-tagged mature Activin E from Construct II (ligand, human, UniProt P58166 237-350, looked up)
chain: TPTCEPATPLCCRRDHYVDFQELGWRDWILQPEGYQLNYCSGQCPPHLAGSPGIAASFHSAVFSLLKANNPWPASTSCCVPTARRPLSLLYLDHNGNVVKTDVPDMVVEACGCS

Biological target: the molecule itself
Assay: SDS-PAGE under non-reducing and reducing conditions with anti-Flag western blot

Protein	stoichiometry N
B1	2
B2	2
